Where a chain is given by its changes, count along the chain named. Numbers in names are those of the source.
T1: Knl1 residues 1870–2342 (human, UniProt Q8NG31 1870-2342)
T1 construct: Knl1, human, 2,342-residue protein, residues 1870-2342; coordinates traced R2097–H2342; Subunit within the KMN network cryo-EM sample; also called extended version of the Knl1 C terminus; source: High-5 insect cells, expressed and purified as part of KNL1C
T1 sequence (looked up): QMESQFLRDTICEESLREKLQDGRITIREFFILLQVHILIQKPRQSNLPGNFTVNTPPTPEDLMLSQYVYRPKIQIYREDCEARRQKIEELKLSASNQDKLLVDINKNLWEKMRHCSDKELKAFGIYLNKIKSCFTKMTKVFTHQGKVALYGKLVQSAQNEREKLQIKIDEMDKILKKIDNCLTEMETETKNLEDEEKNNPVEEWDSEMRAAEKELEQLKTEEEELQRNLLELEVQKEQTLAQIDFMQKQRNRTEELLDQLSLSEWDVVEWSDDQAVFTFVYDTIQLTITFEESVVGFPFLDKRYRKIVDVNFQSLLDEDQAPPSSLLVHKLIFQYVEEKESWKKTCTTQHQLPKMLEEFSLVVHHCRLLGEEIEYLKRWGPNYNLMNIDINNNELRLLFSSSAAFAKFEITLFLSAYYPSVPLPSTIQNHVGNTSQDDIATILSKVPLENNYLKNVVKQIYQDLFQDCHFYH

B1: Knl1^mut2: Knl1 (2131–2337 construct) with S2270R S2272W substitutions (protein)
chain: SLSEWDVVEWSDDQAVFTFVYDTIQLTITFEESVVGFPFLDKRYRKIVDVNFQSLLDEDQAPPSSLLVHKLIFQYVEEKESWKKTCTTQHQLPKMLEEFSLVVHHCRLLGEEIEYLKRWGPNYNLMNIDINNNELRLLFRSWAAFAKFEITLFLSAYYPSVPLPSTIQNHVGNTSQDDIATILSKVPLENNYLKNVVKQIYQDLFQD
modifications: left off: His6, N-terminal, cleaved
notes: Knl1 (2131–2337 construct) with S2270R S2272W substitutions
B2: Knl1^mut1: Knl1 (2131–2337 construct) with R2248D W2249A substitutions (protein, UniProt Q8NG31 2131-2337, looked up, variant R2248D W2249A)
chain: B1 chain with R118D, W119A, R140S, W142S
B3: Knl1^mut3: Knl1 (2131–2337 construct) with S2270R S2272W R2248A W2249A substitutions (protein, UniProt Q8NG31 2131-2337, looked up, variant S2270R S2272W R2248A W2249A)
chain: B1 chain with R118A, W119A
B4: ZWINT (natural protein, human, UniProt O95229 1-277, looked up)
chain: MEAAETEAEAAALEVLAEVAGILEPVGLQEEAELPAKILVEFVVDSQKKDKLLCSQLQVADFLQNILAQEDTAKGLDPLASEDTSRQKAIAAKEQWKELKATYREHVEAIKIGLTKALTQMEEAQRKRTQLREAFEQLQAKKQMAMEKRRAVQNQWQLQQEKHLQHLAEVSAEVRERKTGTQQELDRVFQKLGNLKQQAEQERDKLQRYQTFLQLLYTLQGKLLFPEAEAEAENLPDDKPQQPTRPQEQSTGDTMGRDPGVSFKAVGLQPAGDVNLP
notes: ZWINT, human; coordinates traced Q183–G221; Subunit within the KMN network cryo-EM sample; source: High-5 insect cells, expressed and purified as part of KNL1C
B5: Nsl1 (natural protein, Homo sapiens, UniProt Q96IY1 1-281, looked up)
chain: MAGSPELVVLDPPWDKELAAGTESQALVSATPREDFRVRCTSKRAVTEMLQLCGRFVQKLGDALPEEIREPALRDAQWTFESAVQENISINGQAWQEASDNCFMDSDIKVLEDQFDEIIVDIATKRKQYPRKILECVIKTIKAKQEILKQYHPVVHPLDLKYDPDPAPHMENLKCRGETVAKEISEAMKSLPALIEQGEGFSQVLRMQPVIHLQRIHQEVFSSCHRKPDAKPENFITQIETTPTETASRKTSDMVLKRKQTKDCPQRKWYPLRPKKINLDT
notes: Nsl1, subunit of human MIS12C; Subunit within the KMN network cryo-EM sample; source: High-5 insect cells, expressed and purified as part of MIS12C
B6: Spc25 (natural protein, Homo sapiens, UniProt Q9HBM1 1-224, looked up)
chain: MVEDELALFDKSINEFWNKFKSTDTSCQMAGLRDTYKDSIKAFAEKLSVKLKEEERMVEMFLEYQNQISRQNKLIQEKKDNLLKLIAEVKGKKQELEVLTANIQDLKEEYSRKKETISTANKANAERLKRLQKSADLYKDRLGLEIRKIYGEKLQFIFTNIDPKNPESPFMFSLHLNEARDYEVSDSAPHLEGLAEFQENVRKTNNFSAFLANVRKAFTATVYN
notes: Spc25, subunit of human NDC80C; coordinates traced D80–N224; Subunit within the KMN network cryo-EM sample; source: High-5 insect cells, expressed and purified as part of NDC80C
B7: Mis12 (natural protein, Homo sapiens, UniProt Q9H081 1-205, looked up)
chain: MSVDPMTYEAQFFGFTPQTCMLRIYIAFQDYLFEVMQAVEQVILKKLDGIPDCDISPVQIRKCTEKFLCFMKGHFDNLFSKMEQLFLQLILRIPSNILLPEDKCKETPYSEEDFQHLQKEIEQLQEKYKTELCTKQALLAELEEQKIVQAKLKQTLTFFDELHNVGRDHGTSDFRESLVSLVQNSRKLQNIRDNVEKESKRLKIS
notes: Mis12, subunit of human MIS12C; Subunit within the KMN network cryo-EM sample; source: High-5 insect cells, expressed and purified as part of MIS12C
B8: Dsn1 (natural protein, Homo sapiens, UniProt Q9H410 1-356, looked up)
chain: MTSVTRSEIIDEKGPVMSKTHDHQLESSLSPVEVFAKTSASLEMNQGVSEERIHLGSSPKKGGNCDLSHQERLQSKSLHLSPQEQSASYQDRRQSWRRASMKETNRRKSLHPIHQGITELSRSISVDLAESKRLGCLLLSSFQFSIQKLEPFLRDTKGFSLESFRAKASSLSEELKHFADGLETDGTLQKCFEDSNGKASDFSLEASVAEMKEYITKFSLERQTWDQLLLHYQQEAKEILSRGSTEAKITEVKVEPMTYLGSSQNEVLNTKPDYQKILQNQSKVFDCMELVMDELQGSVKQLQAFMDESTQCFQKVSVQLGKRSMQQLDPSPARKLLKLQLQNPPAIHGSGSGSCQ
notes: Dsn1, subunit of human MIS12C; Subunit within the KMN network cryo-EM sample; residues N-terminal to Arg92 are disordered; source: High-5 insect cells, expressed and purified as part of MIS12C

Legend:
MIS12C = test: SEC assessment of Knl1 mutants binding to MIS12C; design: species or system Homo sapiens; conditions: Knl1 (2131–2337) mutant + MIS12C at 4 µM each, 20 mM HEPES pH 7.8, 150 mM NaCl, 0.5 mM TCEP, Superose 6, at least two repeats
Description: Assessment of substitutions in the MIS12C–KNL1 interfaces
To test the effect of substitutions in the MIS12C–KNL1 interfaces, either wild-type MIS12C or MIS12C^Nsl1ΔC was mixed with either wild-type KNL1 or two mutants (KNL1^R2248D […] (KNL1^mut1), KNL1^S2270R S2272W (KNL1^mut2)) at 4 µM each in a buffer of 20 mM HEPES (pH 7.8), 150 mM NaCl and 0.5 mM TCEP, and 50 µl was loaded onto a Superose 6 size-exclusion column (Cytiva).
Extended Data Fig. 9 Biochemical validation of the MIS12C:Knl1 interface. a Coomassie blue-stained SDS-PAGE gels of the MIS12C:Knl1 interaction reconstitutions. MIS12C (WT) and MIS12C with Nsl1 truncated at the C-terminus (1–264 Nsl1 construct, MIS12C^Nsl1ΔC) were tested in their ability to bind either wild-type RWD domains of Knl1 (2131–2337 construct, labelled Knl1 for simplicity) or Knl1 mutants (R2248D/W2249S substitutions, Knl1^mut1, and S2270R/S2272W substitutions, Knl1^mut2, as well as S2270R/S2272W/R2248A/W2249S substitutions, Knl1^mut3). The binding experiments were repeated at least two independent times with identical results. The gels are aligned according to the fraction number of the protein sample eluted from the size exclusion column. b SEC elution chromatograms of all of the experiments described in (a). Source data

Knl1 residues 1870–2342 = target: T1, Knl1 residues 1870–2342; test: cryo-EM structure; NDC80C, MIS12C and KNL1C mixed 1:1:1 and run on Superose 6 in 20 mM HEPES pH 8.0, 80 mM NaCl, 1 mM MgCl2, 1 mM TCEP; about 1 mg/ml on UltrAuFoil grids; 3.0 Å (MIS12C heads 3.8 Å); conditions: both partners purified
Nsl1 = target: B5; test: as above; conditions: both partners purified
Dsn1 = target: B8; test: as above; conditions: both partners purified

Molecule | MIS12C–Knl1 interaction by SEC, in words (MIS12C) | binding result (Knl1 residues 1870–2342) | binding result (Nsl1) | binding result (Dsn1) | other results
B1 | did not importantly disrupt MIS12C–Knl1 interactions | – | – | – | MIS12C–Knl1 interaction by SEC, in words (MIS12C; listed as Knl1mut2): does not appear to reduce interaction with MIS12C
B2 | did not importantly disrupt MIS12C–Knl1 interactions | – | – | – | –
B3 | little to no change in the interaction | – | – | – | –
B4 | – | binds | binds | – | –
B5 | – | binds | – | binds | –
B6 | – | – | binds | binds | –
B7 | – | – | binds | binds | –
B8 | – | binds | – | – | –

Reference: publication PMC11189301, “Structure of the human outer kinetochore KMN network complex” (Nature Structural & Molecular Biology, 2024)
